Measurements taken from patent US20190262327A1, “COMBINATION OF A BACE INHIBITOR AND AN ANTIBODY OR ANTIGEN-BINDING FRAGMENT FOR THE TREATMENT OF A DISORDER ASSOCIATED WITH THE ACCUMULATION OF AMYLOID BETA” (ASTRAZENECA AB, priority 2016, published 2019).

What was measured:
[1] = target: T1, biotinylated human Amyloid beta 1-40 (Homo sapiens, UniProt P05067); test: Surface Plasmon Resonance specificity profiling of IgGs (BIAcore2000); type: binding; details: peptide 64-1024 nM
T1 construct: biotinylated human Amyloid beta 1-40 (rPeptide, USA; cat: A1111); purchased rPeptide, USA A1111; host or cells: synthetic peptide
T1 sequence (P05067 672-711): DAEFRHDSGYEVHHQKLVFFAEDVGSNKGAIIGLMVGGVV
Procedure: (§1) Surface Plasmon Resonance was used to verify the specificity of the affinity-optimized IgGs for the human Amyloid beta 1-42 peptide. Briefly, the BIAcore2000 (GE Healthcare, UK) biosensor instrument was used to assess the kinetic parameters of the interaction between each test IgG and a range of small peptides including synthetically-produced human Amyloid beta 1-42 and human Amyloid beta 1-40. These experiments were performed essentially as described by Karlsson et al. (Karlsson et al., 1991).
(§2) The interaction between each test IgG and each peptide was estimated using assays in which the antibody was non-covalently captured by a protein G surface that was itself amine linked to a proprietary CM5 chip. The interaction between antibody and peptide was observed using a 5 application single cycle approach. The chip surface was regenerated between cycles by paired 40 second injections of 10 mM Glycine pH 2.0 to remove ligand and bound antibody. The test antibody was then reapplied for each peptide injection cycle.
(§3) Blank reference flow-cell data were subtracted from each IgG dataset and a zero-concentration antibody-only buffer blank was double-reference subtracted from the main dataset.

[2] = target: T2, biotinylated human Amyloid beta 1-42 (Homo sapiens, UniProt P05067); test: as above; type: binding; details: peptide 64-1024 nM
T2 construct: biotinylated human Amyloid beta 1-42 peptide (rpeptide, USA; cat: A1117); purchased rPeptide, USA A1117; host or cells: synthetic peptide
T2 sequence (P05067 672-713): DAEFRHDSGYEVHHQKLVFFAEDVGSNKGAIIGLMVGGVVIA
Procedure: as §1, §2, §3

[3] = target: T3, unlabelled murine Amyloid beta 1-40 (Mus musculus, UniProt P12023); test: as above; type: binding; details: peptide 64-1024 nM
T3 construct: unlabelled murine Amyloid beta 1-40 (rPeptide, USA; cat: A1007); purchased rPeptide, USA A1007; host or cells: synthetic peptide
T3 sequence (P12023 672-711): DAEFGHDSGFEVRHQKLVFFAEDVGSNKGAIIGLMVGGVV
Procedure: as §1, §2, §3

[4] = target: T4, unlabelled murine Amyloid beta 1-42 (Mus musculus, UniProt P12023); test: as above; type: binding; details: peptide 64-1024 nM
T4 construct: unlabelled murine Amyloid beta 1-42 (rPeptide, USA; cat: A1008); purchased rPeptide, USA A1008; host or cells: synthetic peptide
T4 sequence (P12023 672-713): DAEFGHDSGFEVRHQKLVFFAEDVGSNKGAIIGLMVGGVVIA
Procedure: as §1, §2, §3

Amyloid plaques = test: In vitro immunohistochemistry on Tg2576 mouse brain sections
From the text: Briefly, the lead antibodies were screened on human Alzheimer's Disease brain sections and Tg2576 mouse brain sections to identify anti-Amyloid beta 1-42 antibodies that bound to Amyloid plaques in vitro.
In these experiments, human brain tissue was isolated from the frontal cortex of two individuals with severe Alzheimer's Disease (ApoE genotype 3/3, Braak stage 6 and ApoE genotype 4/3, Braak stage 5). As a control, equivalent tissue was isolated from one non-dementia individual (ApoE genotype 3/3, Braak stage 1). Mouse brain tissue was isolated from Tg2576 mice at an age of 15 months (2 mice) and 22 months (2 mice). Antibodies were tested at concentrations of 2, 5, 10 and 20 ug ml^−1.

Aβ1-42 aggregate = target: T5, Aβ1-42 aggregate (Homo sapiens, UniProt P05067); test: Western blot of Abeta 42 aggregate preparation (PICUP and non PICUP); type: binding; details: primary antibody 2 ug/ml; non PICUP and PICUP Aβ42 aggregate
T5 construct: non-cross-linked A[…] 1-42 aggregate
T5 sequence (P05067 672-713 limits assumed): as the sequence (P05067 672-713) above
Procedure: To cross-link the A042 oligomers before SDS-PAGE, PICUP (photo-induced cross-linking of peptides) was carried out as follows. A 1 mM solution of Ru(Bpy) was created by adding 2 μl of stock (at 10 mM) to 18 μl of 1×PBS. In addition, a 20 mM solution of ammonium persulphate (APS) was created by adding […] of stock (at 200 mM) to 18 μl of 1×PBS. Unused stock was immediately snap-frozen on dry ice and returned to the −80° C. freezer. In the dark room, 5 μl of Ru(Bpy) was added to 80 μl of aggregate (neat 10 uM sample), followed by 5 μl of APS. Samples were irradiated with a lamp in the dark room for 10 secs. 30 uls of (4×) LDS Sample buffer was added immediately.
SDS-PAGE was then performed on cross-linked (PICUP) and non-cross-linked A[…] 1-42 aggregate. The solutions were incubated in a hot block at 70° C. for 10 minutes. Meanwhile, a marker was created by combining 5 μl of Magic Mark XP Western Protein Standard, 5 μl of Novex Sharp Pre-stained Protein Standard. After the ten-minute incubation, the samples plus marker were loaded onto a NuPAGE Novex 4-12% Bis-Tris Gels (1.0 mm, 15 well, 15 μl per well) with MES running buffer. The gels were run at 200 V for 35 minutes. […]
During the final washes, the chemi-luminescence SuperSignal West Dura substrate (Thermo Scientific; 34075) were allowed to warm to room temperature. […]

[5] = listed as Abet0380-GL (germlined) IgG1-TM

B1: Abet0380-GL IgG1-TM: germlined Abet0380; VH SEQ ID NO: 524, VL SEQ ID NO: 533; human IgG1 triple mutant format (antibody, listed as Homo sapiens, V domains shown)
VH: EVQLLESGGGLVQPGGSLRLSCAASMGNFNYQTMWWVRQAPGKGLEWVSVIGKTNENIAYADSVKGRFTISRDNSKNTLYLQMNSLRAEDTAVYYCAREWMDHSRPYYYYGMDVWGQGTLVTVSS
VL: SYELTQPPSVSVSPGQTASITCSGHNLEDKFASWYQQKPGQSPVLVIYRDDKRPSGIPERFSASNSGHTATLTISGTQAMDEADYYCSSQDTVTRVFGGGTKLTVL
modifications: human IgG1 triple mutant constant region; /note=“Abet0380-GL”
notes: germlined Abet0380; human IgG1 triple mutant format
- binding of biotinylated human Amyloid beta 1-40 peptide to immobilized antibody [1]: no discernable binding
- binding of biotinylated human Amyloid beta 1-40 peptide to immobilized antibody [1, 5]: no binding
- binding of biotinylated human Amyloid beta 1-42 peptide to immobilized antibody [2]: clear binding
- binding of biotinylated human Amyloid beta 1-42 peptide to immobilized antibody [2, 5]: strong binding
- binding of unlabelled murine Amyloid beta 1-40 peptide to immobilized antibody [3]: no discernable binding
- binding of unlabelled murine Amyloid beta 1-40 peptide to immobilized antibody [3, 5]: no binding
- binding of unlabelled murine Amyloid beta 1-42 peptide to immobilized antibody [4]: clear binding
- binding of unlabelled murine Amyloid beta 1-42 peptide to immobilized antibody [4, 5]: strong binding
- core plaques (CP) staining score (Amyloid plaques; Tg2576 brain sections): 4
- plaque recognition score (Amyloid plaques; Tg2576 mouse brain sections, 22 month old mice, 20 μg/ml): 4
- Abeta42 recognition profile by Western blot (Aβ1-42 aggregate): specifically recognises Aβ1-42 monomer and low n oligomer species up to and including pentamer
